Source: US20110097312A1, “ANTI-CANCER VACCINES” (BOARD OF REGENTS, THE UNIVERSITY OF TEXAS SYSTEM, priority 2008, published 2011)
Values belong to the molecule of their own block, whether it stands above or below them. Ends that are not written are not given here.

How the values were obtained:
peptide-loaded T2 cells = assay: Induction of primary CTL responses; cytotoxicity toward peptide-loaded T2 cells
[1] = biological target: HLA-A2.1 (HLA-A*0201) with β2-microglobulin (human); assay: cell-based or functional assay
[2] = biological target: HLA-A2.1 (HLA-A*0201) with β2-microglobulin (human); assay: peptide-binding assay: stabilisation of HLA-A2 on T2 cells, fluorescence relative to PR1
HLA-A2 = HLA-A2 (Homo sapiens, UniProt P04439, D140Y/D185E/D98H/E176V/E277Q/G131W/G231S/I119V/I121R/I166T/I218V/L300P/L318F/N151K/N90K/P208A/P217A/Q86G/Q94H/R138H/R169H/T345S); assay: Peptide-binding assay: HLA-A2 stabilization on T2 cells; conditions: HLA-A2 stabilization on T2 cells relative to PR1
Excerpt: (§1) Nonameric peptides derived from cyclin E1 and cyclin E2 and predicted to bind to the HLA-A2 allele have similar amino acid sequences, differing only at position 7. Thus, the binding of CCNE1144-152 (cyclin E1 derived) and […] (cyclin E2 derived) was compared to that of PR1 by a peptide-binding assay. […] In 3 of 7 donors, CCNE1144-152-stimulated CTL lines killed both CCNE1144-152 and CCNE2144-152-pulsed T2 cells but not non-peptide-pulsed T2 cells and irrelevant peptide-pulsed T2 cells. In 4 of 7 same donors, CCNE2144-152-stimulated CTL lines killed both CCNE2144-152 and CCNE1144-152-pulsed T2 cells but not non-peptide-pulsed T2 cells and irrelevant peptide-pulsed T2 cells.

[3] = tested on: peptide-pulsed T2 cells, HLA-A2 transfected K562; assay: Elicitation of cyclin E peptide-specific CTL lines and killing of targets; assay type: cell-based, human; conditions: for donors in which peptide-stimulated CTL lines killed CCNE1144-152 and CCNE2144-152-pulsed T2 cells: PBMCs from 7 HLA-A2 positive normal donors
Excerpt: as §1
Thus, each peptide-specific CTLs can recognize both peptides with HLA-A2, but the immunogenicity of each peptide is different between individuals. Moreover, one of 4 CCNE1144-152-stimulated CTL lines which killed CCNE1144-152-pulsed T2 cell killed HLA-A2 transfected K562 leukemic cell line which is over-expressing cyclin E1 protein, but not non-transfected K562 leukemic cell line. Thus, CCNE1144-152-specific CTL can distinguish leukemic cell lines from normal PBMCs. From the data, it was concluded that cyclin E1/E2 derived peptides are tumor antigens, because 1) cyclin E1/E2 are highly over-expressed in hematological malignancy, 2) cyclin E1/E2 peptides can sufficiently bind to HLA-A2 to stimulate CTL and 3) CCLE1144-152 specific CTL preferentially kills leukemic cell lines HLA-A2 restrictively.

myeloid leukemia = conditions: human, in vivo
Excerpt: PR1 peptide vaccine can elicit PR1-CTL immunity in patients with myeloid leukemia. […] To test this in refractory leukemia patients, a phase I/II vaccine study was initiated. HLA-A2+ patients with CML (interferon-resistant or relapsed after BMT), AML (smoldering relapse or ≧2nd CR) or MDS (RAEB or RAEBt) with no detectable antibodies to proteinase 3 (no detectable cANCA) were eligible. Patients that relapsed after BMT or those ineligible for BMT were also eligible for study. Pregnant patients, HIV+ patients, and those with known vasculitis were excluded. Patients were required to have immunosuppression (i.e. cyclosporine, steroids) discontinued 4 weeks prior to study entry.
Primary endpoints were (1) toxicity assessment including the induction of autoimmunity resembling Wegener's granulomatosis, the systemic vasculitis associated with cANCA antibodies; and (2) induction of an immune response assessed by cytokine flow cytometry (CFC) of γ-IFN and PR1/HLA-A2 tetramer staining of PBMC before and 3 weeks after the last vaccination. Secondarily, clinical responses were assessed by standard criteria with bone marrow biopsy, cytogenetic studies (standard chromosome banding) and molecular studies (PCR for bcr-abl or other known abnormalities such as t(15;17), inv16, etc.) 3 weeks after the last vaccination. Patients were seen and evaluated in clinic every 3 weeks during the study period. […]

[4] = biological target: T1, HLA-A2.1 (HLA-A*0201) with β2-microglobulin (human); assay: T2 cell HLA-A2.1 stabilisation (flow cytometry with BB7.2) and I125-β2-microglobulin dissociation from the heterotrimer
T1 construct: In the first assay HLA-A2.1 stood on TAP-deficient T2 cells; In the second assay it was a heterotrimer of HLA-A2.1 heavy chain, peptide and I125-labeled β2-microglobulin in solution

- FI peptide/FI PR1 (HLA-A2): 1.008
Molecule: CCNE1144-152: Nonameric peptide derived from cyclin E1, predicted to bind to the HLA-A2 allele (ILLDWLMEV)
- peptide-stimulated CTL lines that killed HLA-A2 transfected K562 but not non-transfected K562 [3]: one of 4
- donors in which peptide-stimulated CTL lines killed CCNE1144-152 and CCNE2144-152-pulsed T2 cells [3]: 3 of 7

- binding result [4]: binds
Molecule: LIQPFMFRL [MY5 peptide (LIQPFMFRL) from myeloperoxidase]

- binding result [4]: binds
Molecule: SLWRRPFNV [MY1 peptide (SLWRRPFNV) from myeloperoxidase]

- binding result [4]: binds
Molecule: LLSYFKQPV [MY3 peptide (LLSYFKQPV) from myeloperoxidase]

Continued, molecule first:

Molecule: CC[C@H](C)[C@H](NC(=O)[C@H](CCCNC(=N)N)NC(=O)[C@H](CCSC)NC(=O)[C@@H](NC(=O)[C@H](CCC(N)=O)NC(=O)[C@H](CCC(=O)O)NC(=O)[C@H](Cc1ccccc1)NC(=O)[C@H](CC(C)C)NC(=O)[C@@H](N)CCCNC(=N)N)C(C)C)C(=O)O [MY4, RLFEQVMRI]
- cytotoxicity of CTL line generated against the peptide toward MY2-loaded targets (peptide-loaded T2 cells): did not demonstrate any significant cytotoxicity

Molecule: BB7.2, mouse monoclonal antibody against HLA-A2.1
- specific lysis of HLA-A2+ MCF-7 cells by PR1-CTL (calcein AM, 4 hours co-incubation) [1]: 17%

Molecule: CCNE1144-152 (cyclin E1 derived nonameric peptide) (from UniProt P24864 147-155)
- FI CCNE1144-152/FI PR1 [2]: 1.01

Molecule: CCNE2144-152: Nonameric peptide derived from cyclin E2, predicted to bind to the HLA-A2 allele (ILLDWLLEV)
- FI peptide/FI PR1 (HLA-A2): 1.189
- donors in which peptide-stimulated CTL lines killed CCNE1144-152 and CCNE2144-152-pulsed T2 cells [3]: 4 of 7

Molecule: KLLLALAGL [MY2]
- specific lysis of cognate peptide-loaded target cells by CTL line generated against the peptide (peptide-loaded T2 cells): high specific lysis

Molecule: VLQELNVTV [PR1, VLQELNVTV]
- dose levels eliminated on the basis of toxicity in Phase I (myeloid leukemia): none of the doses were eliminated on the basis of toxicity

Molecule: RLFEQVMRI [MY4 peptide (RLFEQVMRI) from myeloperoxidase]
- binding result [4]: binds

Molecule: KLLLALAGL [MY2 peptide (KLLLALAGL) from myeloperoxidase]
- binding result [4]: binds

Molecule: VLQELNVTV [PR1 peptide (VLQELNVTV), HLA-A2.1-restricted nonamer derived from proteinase 3]
- binding result [4]: binds
